From patent publication US20240294650A1 (Alector, published 2024)
Residue numbers refer to the chain shown, from its start.

T1: human MerTK (human, UniProt Q12866 21-999)
T1 sequence: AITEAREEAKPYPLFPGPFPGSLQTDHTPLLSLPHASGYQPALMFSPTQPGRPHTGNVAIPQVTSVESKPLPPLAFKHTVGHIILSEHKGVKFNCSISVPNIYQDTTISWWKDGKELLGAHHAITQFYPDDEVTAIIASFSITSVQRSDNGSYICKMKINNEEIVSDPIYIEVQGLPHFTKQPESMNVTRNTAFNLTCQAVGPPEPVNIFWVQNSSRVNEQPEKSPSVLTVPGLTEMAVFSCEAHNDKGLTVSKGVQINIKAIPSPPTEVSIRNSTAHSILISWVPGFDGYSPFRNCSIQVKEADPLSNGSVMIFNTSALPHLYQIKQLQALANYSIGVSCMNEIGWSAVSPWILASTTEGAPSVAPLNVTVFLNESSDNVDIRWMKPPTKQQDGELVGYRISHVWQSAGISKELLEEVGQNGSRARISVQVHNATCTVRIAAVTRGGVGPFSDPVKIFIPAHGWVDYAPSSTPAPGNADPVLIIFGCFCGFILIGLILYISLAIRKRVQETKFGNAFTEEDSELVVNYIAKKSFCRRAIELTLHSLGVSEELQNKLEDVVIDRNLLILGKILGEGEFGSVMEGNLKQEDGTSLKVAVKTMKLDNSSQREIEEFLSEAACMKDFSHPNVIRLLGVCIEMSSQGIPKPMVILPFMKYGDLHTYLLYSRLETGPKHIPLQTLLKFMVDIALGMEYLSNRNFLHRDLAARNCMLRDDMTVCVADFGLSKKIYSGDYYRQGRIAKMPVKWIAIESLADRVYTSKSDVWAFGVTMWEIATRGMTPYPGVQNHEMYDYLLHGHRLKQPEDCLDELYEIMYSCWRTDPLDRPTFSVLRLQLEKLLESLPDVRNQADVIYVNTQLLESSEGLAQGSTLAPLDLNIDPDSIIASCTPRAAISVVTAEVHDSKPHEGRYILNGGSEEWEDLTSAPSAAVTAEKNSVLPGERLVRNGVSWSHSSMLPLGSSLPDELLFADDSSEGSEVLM

T2: Recombinant human MerTK-human Fc Chimera protein (human, UniProt Q12866 26-499, limits assumed)
T2 construct: bought construct; also called MerTK-Fc (R&D systems, Cat #391-MR-100)
T2 sequence: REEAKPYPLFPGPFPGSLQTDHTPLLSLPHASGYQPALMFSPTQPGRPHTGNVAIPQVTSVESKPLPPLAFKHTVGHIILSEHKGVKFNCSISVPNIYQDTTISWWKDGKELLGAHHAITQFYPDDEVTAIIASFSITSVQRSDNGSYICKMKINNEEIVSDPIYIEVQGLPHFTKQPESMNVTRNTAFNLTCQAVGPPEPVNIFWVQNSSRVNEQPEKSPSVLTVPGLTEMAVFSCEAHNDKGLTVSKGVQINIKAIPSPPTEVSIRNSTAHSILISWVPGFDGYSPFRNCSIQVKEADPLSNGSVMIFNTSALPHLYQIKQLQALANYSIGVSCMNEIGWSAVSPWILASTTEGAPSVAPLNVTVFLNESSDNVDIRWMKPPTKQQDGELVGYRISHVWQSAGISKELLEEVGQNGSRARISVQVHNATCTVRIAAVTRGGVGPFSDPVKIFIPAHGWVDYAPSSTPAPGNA

B1: MTK-229 (antibody, human IgG1, V domains shown)
VH: QVQLQQSGPELVKPGASVKISCKASGYEFSRSWMNWVKQRPGKGLEWIGRIYPGDGDTNYKGKLKGQATLTADKSSSTAYMQLSSLTFEDSAVYFCARGGGYYYDSRYEGFVYWGQGTVVTVSA
VL: QIVLTQSPAIMSASPGEEVTMTCSASSSVSYMHWYQQKSGTSPKRWIYDTSKLASGVSGRFSGSGSGTSYSLTISSMEAEDAATYYCQQWSSNPPITFGAGTKLELK
B2: MTK-201 (antibody, human IgG1, V domains shown)
VH: QVQLRQSGPGLVQPSQSLSITCTVSGFSLSNYGLHWVRQSPGKGLEWLGVIWSGGITDYNAAFISRLSIIKDNSRSQVFFKMNSLQADDTAIYYCARKGHDPYAMDFWGQGTSVTVSS
VL: QIVLTQSPPIMSAFLGERVTMTCTASSSVSSSYLHWYRQMPGSSPKLWIYDTSNLASGVPARFSGSGSGTSYSLTISSMEAEDAATYYCHQYHHSPYTFGGGTKLEIK
B3: MTK-219 (antibody, human IgG1, V domains shown)
VH: QVQLQQSGADLMKPGASVKLSCKATGNTFTGYWIEWVKQRPGHGLEWIGEILTGSGSTNYNERFKGKATFTADTSSNTAYMQLSSLTTEDSAIYYCAGSYFTNSWFPYWGQGSLVTVSA
VL: DIVLTQSPASLAVSLGQRATISCRASESVDSYGNSFMHWYQQKPGQPPKLLIYRAYTLESGIPARFSGSGSRTDFTLTINPVEADDVATYYCQQSNEDPRTFGGGTKLEIK
B4: MTK-222 (antibody, human IgG1, V domains shown)
VH: B3 VH with N27Y, T58S, R63K, T74S, Y80F, F101Y, T102S
VL: B3 VL with A9V, N34S, Y56S, T57S, A84T
B5: MTK-223 (antibody, human IgG1, V domains shown)
VH: DVQLQESGPGLVKPSQSLSLTCSVTGYSITSGYYWNWIRQFPGNKLEWMGYISYDGTNNYNPSLKNRISITRDTSENQFFLKLNSVTTEDTATYFCVRGAGYWGQGTTLTVSS
VL: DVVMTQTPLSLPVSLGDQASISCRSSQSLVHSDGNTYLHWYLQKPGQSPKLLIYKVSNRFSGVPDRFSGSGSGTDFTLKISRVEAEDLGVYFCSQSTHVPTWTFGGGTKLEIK
B6: MTK-228 (antibody, human IgG1, V domains shown)
VH: QDQLQQSGPELVKPGASVKISCKASGYSFTSYYIHWVKQRPGQGLEWVGWIFPGNGNTKYNERFKGKATLTADTSSSTAYMQLSSLTSEDSAVYYCARLGLIYALDYWGQGTSVTVSS
VL: DAVMTQTPLSLPVSLGDQASISCRSSQSLENSNGNTYLHWYLQKPGQSPQLLIYRVSNRFSGVLDRFSGSGSGTDFTLKISRVEAEDLGVYFCLQVTHVPFTFGSGTKLEIK
B7: MTK-226 (antibody, human IgG1, V domains shown)
VH: B6 VH with D2V, V48I, R63N, K65R
VL: B6 VL with N31S, K79Q
B8: MTK-218 (antibody, human IgG1, V domains shown)
VH: B6 VH with D2V, A16T, E46D, V48I, G56R, K59Q, R63K
VL: B6 VL with N35H, L64Q
B9: MTK-211 (antibody, human IgG1, V domains shown)
VH: QVQLQQSGAELMKPGASVKLSCKATGYTFTGYWIEWVKQRPGHGLEWIGEILPGSGGSNYNEKFKGKATFTADTSSNTAYIQLSSLTTEDSAIYCCARGEPSYFSDAGFAYWGQGTLVTVSA
VL: QIVLTQSPAVMSASPGEKVTMTCSASSSITYMHWYQQKPGTSPKRWIYDTSKLASGVPARFSGSGSGTSYFLTISSMEAEDVATYYCHQRSTYPYTFGGGTKLEIM
B10: MTK-220 (antibody, V domains shown)
VH: EVQLVESGGGLVKPGGSLKLSCAASGFTFSDYGMHWVRQAPEKGLEWVAFISGGSGTIYYEDTVKGRFTISRDNAKNTLFLQMTSLRSEDTAMYYCTRGGNYFDYWGQGTTLTVSS
VL: NIMLTQSPSSLAVSAGEKVTMTCKSSQSVLYSSNQKNYLAWYQQKPGQSPKLLIYWASTRESGVPDRFTGSGSGTDFTLTISNVQAEDLAVYYCHQYFSSWTFGGGTKLEIK
B11: MTK-227 (antibody, human IgG1, V domains shown)
VH: EVKLVESGGGLVQPGGSLSLSCAASGFTFTDNYMTWVRQPPGKALEWLGFSRNKANGYTTEYSASVKGRFTISRDSSQSILYLQMNALRAEDSGTYYCARFPPHYYAGGYFDVWGTGTTVTVSS
VL: DIQMTQSPASLSASVGETVTITCRASENIYSYLAWYQQKQGKSPQLLVYNAKTLAEGVPSRFSGSGSGTQFSLKINSLQPADFGSYYCQHYYRTPPTFGGGTKLEIK
B12: MTK-210 (antibody, human IgG1, V domains shown)
VH: QVQLQQSGPELVKPGASVKISCKASDYEFSRSWMNWVKQRPGKGLEWIGRIYPGDGDTNYNGKFKGKATLTADKSSNTAYMQLNSLTSEDSAVYFCARKGGYYYSISNYFDYWGQGTTLTVSS
VL: QIVLTQSPAIMSASPGVKVTMTCSASSSVSYMHWYQQKPGSSPRLLIYDTSNLASGVPVRFSGSGSGTSYSLTISRMEAEDAATYYCQQWSSYPPYTFGGGTKLEIK
B13: MTK-213 (antibody, human IgG1, V domains shown)
VH: QVQLQQPGAELVKPGASVKMSCKASGYTFTSYWITWVKQRPGQGHEWIGEIYPGIGSTNYNEKFKSKATLTVDTSSRTAYMQLSSLTSEDSAVYFCARGAYTKYYFDYWGQGTTLTVSS
VL: DIVMTQSHKFMSTSVGDRVSITCKASQDVGDAVAWYQQKPGQTPKLLIYWASTRHTGVPDRFTGSGSGTDFTLTISNVQSEDLADYFCQQYSSYLMYTFGGGTKLEIK

target: T1, human MerTK; assay: cell-based or functional assay

EC50 (nM), pAKT in SK-MEL-5 cells	Fold increase in PAKT over IgG control	Binder
1.89 nM	4.1 fold	B1
0.65 nM	4.3 fold	B2
–	3.5 fold	B3
–	4.6 fold	B4
–	4.1 fold	B5
0.53 nM	4.2 fold	B6
0.53 nM	4.2 fold	B7
–	4.5 fold	B8
–	4 fold	B9
–	3.6 fold	B10
1.89 nM	4.7 fold	B11
15 nM	3.3 fold	B12
–	3.7 fold	B13

target: T2, Recombinant human MerTK-human Fc …; assay: blocking ELISA, Gas6-His on MerTK-Fc, Ab 66.6 nM, isotype=100%
Description: (§1) Briefly, rabbit anti-human IgG antibody (Jackson ImmunoResearch, Cat #309-005-008) was coated at 2 μg/ml onto high-protein binding plates at 4° C. overnight. After washing with 0.05% Tween20 in PBS three times, 5% BSA in PBS was added for 1 hour. Recombinant human MerTK-human Fe Chimera protein (R&D systems, Cat #391-MR-100) was added at 2 μg/ml for 1 hour and plates were washed before the addition of 40 μl of anti-MerTK hybridoma supernatants and 40 μl of His tag-conjugated recombinant Gas6 (R&D systems, Cat #885-GSB-050) at 3 μg/ml or His tag-conjugated recombinant ProS (R&D systems, Cat #9489-PS-100) at 20 μg/ml. After a further incubation for 1 hour, plates were washed and incubated for 1 hour with HRP-conjugated anti-6×His tagged antibody (Abcam, Cambridge, MA, Cat #ab1187). Plates were then washed and an HRP substrate, TMB, was added to develop the plates. The reaction was stopped by adding 50 μl 2N H₂SO₄ and the OD was measured using a spectrophotometer (BioTek).
(§2) Anti-MerTK antibodies were titrated to a final concentration from 66.6 nM to 4 pM and tested against anti-human MerTK antibody M6 (disclosed in WO2016/106221) or isotype control antibody.

Percent Gas6 ligand binding	Binder
98.9%	B1
112%	B2
106%	B3
105%	B4
107%	B5
110%	B6
109%	B7
112%	B8
115%	B9
97%	B10
99.9%	B11
114%	B12
102%	B13

target: T2, Recombinant human MerTK-human Fc …; assay: blocking ELISA, ProS-His on MerTK-Fc, Ab 66.6 nM, isotype=100%
Description: as §1, §2

Percent ProS ligand binding	Binder
117%	B1
94.3%	B2
100%	B3
88.2%	B4
37.4%	B5
216%	B6
175%	B7
179%	B8
106%	B9
63.4%	B10
84.5%	B11
116%	B12
43.2%	B13
